Measured values: article PMC5117808 (Nature chemical biology, 2016)
No end group written: not given here.

B1: MdnB (ATP-grasp macrocyclase, microviridin J pathway, Microcystis aeruginosa MRC) (enzyme)
chain: MKESPKVVLLLTHSGDFFTIDRVAEAIEKKGATPFRLDTDKFPLEVQLTAQFNGKKSFYQLSYNHQSIDSEQVQSVWTRRIWQPELTGDLDPQFREVCVRESQTTLAGFWDSLRSARWLDNLAQIEKAKNKLLQLRLASEVGLIIPPTLVTNNPDAAREFFSQVQGRMVSKLLTAIARSMESPEFFLYTSRVKAEDLEEAESLRYCPMVFQAEIPKQLELRVVVVNGQTFVGALESSQYNNSAVDWRRPGIDPGAWQHHTLPDSLLQQLQIFMANLGLNFGAFDFILTPGGEYVFLEVNPGGEWGMLERDLDLPISQAIADFLVFG

Legend:
[1] = target: MdnC (ATP-grasp macrocyclase, microviridin J pathway, Microcystis aeruginosa MRC) (Microcystis aeruginosa MRC); experiment: ITC
[2] = target: MdnC (ATP-grasp macrocyclase, microviridin J pathway, Microcystis aeruginosa MRC) (Microcystis aeruginosa MRC); experiment: SEC + native gel or EMSA
[3] = test system: Daphnia; details: through inhibition of serine-type proteases; cited from earlier work
[4] = target: T1, MdnB (Microcystis aeruginosa MRC, UniProt B2G3C9); experiment: ITC binding of MdnA peptides to MdnB
T1 sequence (B2G3C9 1-326): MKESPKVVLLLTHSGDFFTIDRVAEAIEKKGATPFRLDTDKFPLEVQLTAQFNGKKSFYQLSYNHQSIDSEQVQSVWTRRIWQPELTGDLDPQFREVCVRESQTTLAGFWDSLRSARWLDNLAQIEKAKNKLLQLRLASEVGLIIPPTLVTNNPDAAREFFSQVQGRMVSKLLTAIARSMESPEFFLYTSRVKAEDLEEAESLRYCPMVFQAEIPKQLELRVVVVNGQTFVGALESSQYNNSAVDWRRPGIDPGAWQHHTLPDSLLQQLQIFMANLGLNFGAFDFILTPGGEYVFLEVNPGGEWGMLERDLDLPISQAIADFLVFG

[5] = target: T2, MdnC (Microcystis aeruginosa MRC, UniProt B2G3D0); format: binding; details: ITC
T2 sequence (B2G3D0 1-324): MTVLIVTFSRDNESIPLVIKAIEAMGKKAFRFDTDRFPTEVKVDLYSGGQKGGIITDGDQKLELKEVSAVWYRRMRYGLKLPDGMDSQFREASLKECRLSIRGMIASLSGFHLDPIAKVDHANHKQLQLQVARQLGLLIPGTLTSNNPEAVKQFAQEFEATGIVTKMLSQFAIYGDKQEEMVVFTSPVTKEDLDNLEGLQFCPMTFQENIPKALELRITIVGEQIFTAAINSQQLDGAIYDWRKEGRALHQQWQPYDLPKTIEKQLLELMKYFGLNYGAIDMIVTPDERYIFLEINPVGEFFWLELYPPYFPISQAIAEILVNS

[6] = target: MdnC (Microcystis aeruginosa MRC); experiment: SEC
[7] = target: MdnC (Microcystis aeruginosa MRC); experiment: crystal structure
[8] = target: the molecule itself; experiment: SEC + native gel or EMSA
[9] = target: B1; experiment: ITC

Q: For “Full-length MdnA (residues 1-49), microviridin J precursor peptide (from UniProt B2G3C8 1-49)”, which Kd [1] is on record?
A: The Kd was 112 nM.

Q: For “MdnC (ATP-grasp macrocyclase, microviridin J pathway, Microcystis aeruginosa MRC) (enzyme)”, which stoichiometry N [2] is on record?
A: The stoichiometry N was 2.

Q: For microviridin J, which “Effect on Daphnia” value [3] is on record?
A: The value was “lethal molting disruption”.

Q: For Nc1ncnc2c1ncn2[C@@H]1O[C@H](COP(=O)(O)OP(=O)(O)OP(=O)(O)O)[C@@H](O)[C@H]1O [ATP], which “Binding to MdnB, in words” value [4] is on record?
A: The value was “neither MdnC nor MdnB show an observable heat change”.

Q: And the “Binding to MdnC, in words” value [5]?
A: Its value is “neither MdnC nor MdnB show an observable heat change”.

Q: Which stoichiometry N [6] does the source give for MdnC (enzyme) here?
A: The stoichiometry N was 2.

Q: What about the stoichiometry N [7] of the same molecule?
A: Its stoichiometry N is 2.

Q: With B1 as the molecule, how does the “stoichiometry N” value [8] read?
A: Its value is 2.

B2: MdnA[9-22], minimal peptide containing the conserved region of the leader peptide (peptide)
peptide: GKALPFFARFLSVS
modifications: not fully specified
Q: Which Kd [1] does the source give for B2 here?
A: Its Kd is 308 nM.

B3: MdnA[1-35], leader peptide-only analog of MdnA (peptide)
peptide: MAYPNDQQGKALPFFARFLSVSKEESSIKSPSPDH
modifications: not fully specified
Q: With B3 as the molecule, how does the Kd [1] read?
A: The Kd was 146 nM.

B4: MdnA[1-35], leader peptide-only analog of MdnA (peptide)
peptide: MAYPNDQQGKALPFFARFLSVSKEESSIKSPSPDH
Q: With B4 as the molecule, how does the Kd [9] read?
A: Its Kd is 2800 ± 800 nM.

B5: Full-length MdnA (residues 1-49), microviridin J precursor peptide (peptide)
peptide: MAYPNDQQGKALPFFARFLSVSKEESSIKSPSPDHEISTRKYPSDWEEW
Q: Which Kd [9] does the source give for B5 here?
A: The Kd was 4800 ± 1000 nM.

B6: MdnAΔ2, dicyclic intermediate of MdnA (peptide)
peptide: MAYPNDQQGKALPFFARFLSVSKEESSIKSPSPDHEISTRKYPSDWEEW
modifications: two macrolactone rings, Thr39/Asp45 and Ser43/Glu47 (installed by MdnC)
Q: With B6 as the molecule, how does the Kd [9] read?
A: The Kd was 6400 ± 2000 nM.
